Assay results reported in patent publication US4748122A, “2,5-diketo-D-gluconic acid reductase” (Shionogi & Co., Ltd., priority 1983, dated 1988).
Several values for one entry are separate records, joined by “and”; a condition that tells them apart may be missing. Identical values can stand only once.

How the values were obtained:
[1] = pH stability of the enzyme (residual activities after treatment in buffers); format: physicochemical
Experimental: (determined on the basis of residual activities after treatments in 0.1M dimethylglutaric acid buffer for pH 4-5, in 0.1M Good buffer (PIPES) for pH 6-7 and in 0.1M Tris-HCl buffer for ph 8-9 at 28° C. for 30 minutes). Residual activity of 70% or more is recognized in pH 5-7 while only those of 30% or less are recognized in pH 4 or below, and in pH 8 or above.
Ninety-six (96) % or more of the activity is lost after being stood at pH 4 or below, or pH 8 or above and at 28° C. for 2 hours.

[2] = Isoelectric point electrophoresis of the enzyme; format: physicochemical
Experimental: (10) Isoelectric point: pH 4.4±0.3 (measured by isoelectric point electrophoresis).
Five (5) μl of the enzyme solution was then subjected to isoelectric point electrophoresis (gel; polyacrylamide: conditions of phoresis(a); pH interval 2.5-5; anode electrolyte=0.1M H2 SO4 cathode electrolyte=0.1M NaOH, 6W, 2,700 VH: conditions of phoresis(b); pH interval 4.0-6.5; anode electrolyte=0.04M DL-glutamic acid, cathode electrolyte=0.2M NaOH, 25W, 2,600 VH; temperature, 18°-20° C.) to give a result that the enzyme migrated in a single band at a position which corresponds to pH 4.4±0.2. From the previously-describedfacts, it was confirmed that the purified enzyme solution was one which solely contains 25DKG-Rase.

[3] = Optimum pH and range of reaction temperature of the enzyme; format: biochemical
Experimental: In order to clarify the relation between the reaction velocity of the 25DKG-Rase and pH, the enzymatic activities were measured by using the following buffers in place of the buffer of the reaction system in (5)-(ii).
The results of the measurements of the enzymatic activities on the substrates, Ca-25DKG and 5KF at the respective pHs are shown in Table 4 below.
The reaction velocities in the reaction system of (5)-(ii) which employs the substrate, Ca-25DKG were measured at varying temperatures from 15° to 50° C.
Enzymatic activities of 25DKG-Rases obtained from K-106 and T-13 were measured at varying pH from 4 to 9 (substrate: Ca-25DKG, reaction temperature: 30° C.).

2,5-diketo-D-gluconic acid reductase [25DKG-Rase]
pH stability ([1]; 28° C. for 30 minutes in 0.1M buffers): 5-7 pH | Residual activity ([1]; pH 4 or below, and pH 8 or above, 28° C. for 30 minutes): ≤ 30% | activity lost ([1]; pH 4 or below, or pH 8 or above, 28° C. for 2 hours): ≥ 96% | Residual activity ([1]; pH 5-7, 28° C. for 30 minutes): ≥ 70% | isoelectric point [2]: 4.4±0.2 pH and 4.4±0.3 pH | optimum pH [3]: 6-7 pH
